These results are taken from patent US20240228562A1, “NOVEL LIPOCALIN MUTEINS SPECIFIC FOR CONNECTIVE TISSUE GROWTH FACTOR (CTGF)” (PIERIS PHARMACEUTICALS GMBH, priority 2021, published 2024).

Changes are numbered by the printed parent chain.

Sequences and labels used below:
T1: Murine CTGF (Mus musculus, UniProt P29268)
T1 construct: purchased Abbexa
T1 sequence (P29268 26-348): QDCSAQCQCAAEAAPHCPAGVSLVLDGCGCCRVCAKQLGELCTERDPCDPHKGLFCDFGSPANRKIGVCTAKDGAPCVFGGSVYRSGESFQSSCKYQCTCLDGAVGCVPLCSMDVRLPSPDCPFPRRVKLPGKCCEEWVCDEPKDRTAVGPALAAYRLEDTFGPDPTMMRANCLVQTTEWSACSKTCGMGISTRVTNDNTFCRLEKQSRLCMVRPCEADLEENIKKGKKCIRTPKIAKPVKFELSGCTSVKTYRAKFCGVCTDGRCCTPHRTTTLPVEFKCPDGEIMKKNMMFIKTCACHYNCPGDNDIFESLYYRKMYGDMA

T2: Rat CTGF (Rattus norvegicus, UniProt Q9R1E9)
T2 construct: purchased R&D Systems
T2 sequence (Q9R1E9 25-347): T1 sequence (P29268 26-348) with H16R, A148V

B1: SEQ ID NO: 33: optimized CTGF-binding hNGAL lipocalin mutein (protein)
chain: QDSTSDLIPAPPLSKVPLQQNFQDNQFQGKWYVVGWAGNAKLREDKQPFKMSATIYELKEDKSYDVTEVVFEQKKCHYIIKTFVPGSQPGEFTEGNYKRRPRLWSDLVRVVSTNYNQHAMVFFKKVHQNREFFWITLYGRTKELTSELKENFIRFSKSLGLPENHIVFPVPIDQCIDG
modifications: lipocalin mutein
B2: SEQ ID NO: 31: optimized CTGF-binding hNGAL lipocalin mutein (protein)
chain: QDSTSDLIPAPPLSKVPLQQNFQDNQFQGKWYVVGWAGNVKLREDKQPQKMSATIYELKEDKSYDVTEVVFEQKKCHYIIKTFVPGSQPGEFTAGDIKSPPGYTSSLVRVVSTNYNQHAMVFFKKVSQNREFFWITLYGRTKELTSELKENFIRFSKSLGLPENHIVFPVPIDQCIDG
modifications: lipocalin mutein
B3: SEQ ID NO: 36: optimized CTGF-binding hNGAL lipocalin mutein (protein)
chain: B2 chain with Q49A, S127G
modifications: lipocalin mutein
B4: SEQ ID NO: 34: optimized CTGF-binding hNGAL lipocalin mutein (protein)
chain: B2 chain with K41I, Q49F, A94L, Y103E, S106T
modifications: lipocalin mutein
B5: SEQ ID NO: 35: optimized CTGF-binding hNGAL lipocalin mutein (protein)
chain: B2 chain with Q49L
modifications: lipocalin mutein
B6: SEQ ID NO: 6: optimized CTGF-binding hNGAL lipocalin mutein (protein)
chain: QDSTSDLIPAPPLSKVPLQQNFQDNQFQGKWYVVGRAGNNQLREDKSPPKMWATIYELKEDKSYDVTHVHFSTKKCRYIIDTFVPGSQPGEFTAGAIKSGPGLTSPLVRVVSTNYNQHAMVFFKWVTQNREWFTITLYGRTKELTSELKENFIRFSKSLGLPENHIVFPVPIDQCIDG
modifications: lipocalin mutein
B7: SEQ ID NO: 22: optimized CTGF-binding hNGAL lipocalin mutein (protein)
chain: QDSTSDLIPAPPLSKVPLQQNFQDNQFQGKWYVVGIAGNAILRVDKQPAKMFATIYELKEDKSYDVTSVRFEAKSCVYTIKTFVPGSQPGEFTAGNIKSAPGQTSTLVRVVSTNYNQHAMVFFKHVSQNREIFVITLYGRTKELTSELKENFIRFSKSLGLPENHIVFPVPIDQCIDG
modifications: lipocalin mutein
B8: SEQ ID NO: 5: optimized CTGF-binding hNGAL lipocalin mutein (protein)
chain: QDSTSDLIPAPPLSKVPLQQNFQDNQFQGKWYVVGKAGNALREDKEPPKMWATIYELKEDKSYDVTHVHFLTKKCKYLIDTFVPGSQPGEFTIGAIKSGPGLTSPLVRVVSTNYNQHAMVFFKWVSQNREWFTITLYGRTKELTSELKENFIRFSKSLGLPENHIVFPVPIDQCIDG
modifications: lipocalin mutein

Chain of cynomolgus CTGF (as listed by the source): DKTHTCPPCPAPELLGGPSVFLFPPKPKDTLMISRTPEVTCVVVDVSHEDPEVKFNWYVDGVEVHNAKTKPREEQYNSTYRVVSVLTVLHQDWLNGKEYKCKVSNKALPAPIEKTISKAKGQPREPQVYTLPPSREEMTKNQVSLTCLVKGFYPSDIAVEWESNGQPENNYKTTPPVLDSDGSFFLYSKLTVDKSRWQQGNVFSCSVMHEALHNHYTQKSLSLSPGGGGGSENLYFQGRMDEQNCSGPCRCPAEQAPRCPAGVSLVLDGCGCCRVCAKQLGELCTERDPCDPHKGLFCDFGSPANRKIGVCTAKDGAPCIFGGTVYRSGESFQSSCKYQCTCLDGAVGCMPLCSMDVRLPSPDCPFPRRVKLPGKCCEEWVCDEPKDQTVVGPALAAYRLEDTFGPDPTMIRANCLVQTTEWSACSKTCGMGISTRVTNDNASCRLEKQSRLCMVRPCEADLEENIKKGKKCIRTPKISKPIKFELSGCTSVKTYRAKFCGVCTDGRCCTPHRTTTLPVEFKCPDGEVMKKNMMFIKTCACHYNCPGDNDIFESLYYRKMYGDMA

Tested on in one series: not listed separately
Description: Thermal stability assessment by nanoDSC. In kind it is physicochemical. Particulars: 1 mg/mL in PBS, scan 25-100° C. at 1° C./min. In a few lines: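 CTGF-specific lipocalin muteins at 1 mg/mL in PBS scanned from 25 to 100° C at 1° C/min by capillary nano-DSC. Where several transitions occur, the Tm of the major unfolding event is reported, along with onset temperature. Some muteins were expressed in E. coli, others in CHO cells.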
For B1, the “ONSET MELTING” value was found to be 56 °C.
On the same count and under the same terms, under B2 stands 59 °C.
In the case of B3, the “ONSET MELTING” value came out at 58 °C.
Same read-out and setting: then B4, with 67 °C; and B5, with 63 °C.
With B6, the “ONSET MELTING” value worked out at 48 °C.
On the same count and under the same terms, under B7 stands 59 °C.
Consider B8, for which the “ONSET MELTING” value is 52 °C.

The series is the same for the next values; noted with them: 1 mg/mL in PBS, scan 25-100° C. at 1° C./min, major transition.
Molecule B1 registered a TM of 72 °C.
Same read-out and setting: then B2, with 75 °C.
On to B3, for which the TM was 73 °C.
B4 showed a TM of 82 °C.
The same measure, in the same setting: then B5, with 78 °C; and B6, with 66 °C; and B7, with 73 °C.
The molecule B8 yielded a TM of 66 °C.

In another series the target is T3, human CTGF (Homo sapiens, UniProt P29279).
T3 construct: purchased Creative Biomart
T3 sequence (P29279 with tags, fused parts or gaps H83D): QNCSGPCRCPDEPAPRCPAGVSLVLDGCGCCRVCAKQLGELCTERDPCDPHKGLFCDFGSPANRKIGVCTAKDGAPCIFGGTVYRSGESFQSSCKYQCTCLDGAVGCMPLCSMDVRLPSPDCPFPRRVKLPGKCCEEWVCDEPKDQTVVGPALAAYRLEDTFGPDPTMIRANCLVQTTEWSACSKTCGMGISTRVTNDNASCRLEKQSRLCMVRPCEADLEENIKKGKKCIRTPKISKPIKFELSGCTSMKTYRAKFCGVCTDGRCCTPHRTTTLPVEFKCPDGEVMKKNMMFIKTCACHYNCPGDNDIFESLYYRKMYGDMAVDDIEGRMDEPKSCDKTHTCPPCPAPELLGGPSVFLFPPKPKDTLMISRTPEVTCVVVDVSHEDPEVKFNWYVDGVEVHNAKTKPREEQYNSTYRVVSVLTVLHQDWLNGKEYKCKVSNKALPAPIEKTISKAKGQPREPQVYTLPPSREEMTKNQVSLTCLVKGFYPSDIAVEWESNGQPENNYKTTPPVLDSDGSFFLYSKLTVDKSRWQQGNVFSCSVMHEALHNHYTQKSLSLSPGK
Description: SPR binding kinetics and affinity, human CTGF. The following applies: 25° C., 1:1 binding model. Here is the method:
(§1) Surface plasmon resonance (SPR) was used to measure binding kinetics and affinity of the representative lipocalin muteins disclosed herein.
(§2) The binding of exemplary lipocalin muteins to human (Creative Biomart), cynomolgus, rat (R&D Systems) and mouse CTGF (Abbexa) was determined by SPR using a Biacore instrument (Cytiva, formerly GE Healthcare). Some targets were fused to a human IgG1 Fc tag, and captured via the anti-human IgG antibody kit, others were directly immobilized.
(§3) For some measurements, human CTGF with a human IgG1 Fc Tag or rat or murine CTGF without a tag were directly immobilized to a CM5 Chip. The carboxyl groups on the chip were activated using 1-ethyl-3-(3-dimethylaminopropyl)-carbodiimide (EDC) and N-hydroxysuccinimide (NHS). Subsequently, the targets at a concentration of 3-5 μg/mL in 10 mM sodium acetate (pH) 4.5 were applied at a flow rate of 10 μL/min until an immobilization level of 300-1100 resonance units was achieved. Residual non-reacted NHS-esters were blocked by passing a solution of 1 M ethanolamine across the surface. The reference channel was activated/deactivated. For the capture setting, targets with an IgG Fc Tag at 0.25-2.5 μg/mL in HBS-EP+ buffer were captured by the anti-human IgG-Fc antibody at the chip surface for 180 s at a flow rate of 10 μL/min.
(§4) The binding assay was carried out with a contact time of 180 s, a dissociation time of 900-3600 s and a flow rate of 30 μL/min. All measurements were performed at 25° C. […] For the directly immobilized targets, the same regeneration conditions were used. Prior to the protein measurements, three startup cycles were performed for conditioning purposes. Data were evaluated with Biacore Evaluation software. Double referencing was used and the 1:1 binding model was used to fit the raw data.
In general terms: In SPR one partner is held on a chip, and binding of the other changes the refractive index at the surface.
With B1, the “human CTGF koff” value was found to be 1.71e-05 s⁻¹.
Consider B2, for which the “human CTGF koff” value was 4.85e-05 s⁻¹.
Still for that read-out and setting: under B3 stands 6.95e-05 s⁻¹.
Regarding B4, the “human CTGF koff” value was 0.000169 s⁻¹.
Still for that read-out and setting: under B5 stands 5.94e-05 s⁻¹; under B6, 0.000149 s⁻¹.
With B7, the “human CTGF koff” value amounted to 8.05e-06 s⁻¹.
Consider B8, for which the “human CTGF koff” value amounted to 6.65e-05 s⁻¹.

In a further series the target is T4, human CTGF (Homo sapiens, UniProt P29279, H83D).
T4 construct: purchased Creative Biomart
T4 sequence (P29279 with tags, fused parts or gaps H83D): as above
The series can be described thus: SPR binding kinetics and affinity, human CTGF. Particulars: 25° C., 1:1 binding model. The protocol: as §1, §2, §3, §4
In the case of B1, the “human CTGF kon” value stood at 172000 M⁻¹ s⁻¹.
Consider B2, for which the “human CTGF kon” value turned out to be 195000 M⁻¹ s⁻¹.
B3: the “human CTGF kon” value is 165000 M⁻¹ s⁻¹.
Same read-out and setting: under B4 stands 150000 M⁻¹ s⁻¹.
Regarding B5, the “human CTGF kon” value came out at 108000 M⁻¹ s⁻¹.
B6: the “human CTGF kon” value was found to be 290000 M⁻¹ s⁻¹.
Turning to B7, the “human CTGF kon” value was found to be 142000 M⁻¹ s⁻¹.
With B8, the “human CTGF kon” value was found to be 211000 M⁻¹ s⁻¹.

In the next series the test system is cynomolgus CTGF. Description: SPR binding kinetics and affinity, cynomolgus CTGF. Particulars: 25° C., 1:1 binding model. Here is the method:
as §1, §2, §3, §4
(§5) The values determined for kon, koff and the resulting equilibrium dissociation constant (KD) for exemplary lipocalin muteins are summarized in Table 4.
Regarding B2, the “cynomolgus CTGF koff” value came out at 7.31e-05 s⁻¹ and the “cynomolgus CTGF kon” value amounted to 162000 M⁻¹ s⁻¹.
Take B3: the “cynomolgus CTGF koff” value stood at 9.77e-05 s⁻¹ and the “cynomolgus CTGF kon” value worked out at 141000 M⁻¹ s⁻¹.
Turning to B4, the “cynomolgus CTGF koff” value was found to be 0.000238 s⁻¹ and the “cynomolgus CTGF kon” value was 139000 M⁻¹ s⁻¹.

For the next series, the target named is T1, Murine CTGF. Description: SPR binding kinetics and affinity, murine CTGF. The following applies: 25° C., 1:1 binding model. The arrangement: key to Murine CTGF kon / Murine CTGF koff / Murine CTGF KD: B binding without determination of kinetics constants. The protocol:
as §1, §2, §3, §4, §5
On to B1, for which the “Murine CTGF koff” value was found to be 5.29e-05 s⁻¹ and the “Murine CTGF kon” value amounted to 176000 M⁻¹ s⁻¹.
B2: the “Murine CTGF koff” value was found to be 0.000444 s⁻¹ and the “Murine CTGF kon” value was determined as 281000 M⁻¹ s⁻¹.
On to B3, for which the “Murine CTGF koff” value worked out at 0.00052 s⁻¹ and the “Murine CTGF kon” value was 310000 M⁻¹ s⁻¹.
Turning to B4, the “Murine CTGF koff” value was found to be 0.00286 s⁻¹ and the “Murine CTGF kon” value worked out at 240000 M⁻¹ s⁻¹.
With B5, the “Murine CTGF koff” value came out at 0.000287 s⁻¹ and the “Murine CTGF kon” value turned out to be 128000 M⁻¹ s⁻¹.
For B6, the “Murine CTGF KD” value is “B”, the “Murine CTGF koff” value is given as “B” and the “Murine CTGF kon” value was “B”.
Take B7: the “Murine CTGF KD” value is “B”, the “Murine CTGF koff” value was “B” and the “Murine CTGF kon” value is “B”.
Turning to B8, the “Murine CTGF KD” value is “B”, the “Murine CTGF koff” value is reported as “B” and the “Murine CTGF kon” value is on record as “B”.

The next series concerns the target T2, Rat CTGF. The series can be described thus: SPR binding kinetics and affinity, rat CTGF. The arrangement: key to Rat CTGF kon / Rat CTGF koff / Rat CTGF KD: B binding without determination of kinetics constants. The following applies: 25° C., 1:1 binding model. Here is the method: as §1, §2, §3, §4, §5
With B1, the “Rat CTGF koff” value worked out at 6.3e-05 s⁻¹ and the “Rat CTGF kon” value came out at 279000 M⁻¹ s⁻¹.
In the case of B2, the “Rat CTGF koff” value was 0.000423 s⁻¹ and the “Rat CTGF kon” value was determined as 223000 M⁻¹ s⁻¹.
For B5 the same measures were 0.000273 s⁻¹ and 193000 M⁻¹ s⁻¹.
Turning to B6, the “Rat CTGF KD” value is on record as “B”, the “Rat CTGF koff” value is “B” and the “Rat CTGF kon” value is given as “B”.
Take B7: the “Rat CTGF koff” value was determined as 4.01e-05 s⁻¹ and the “Rat CTGF kon” value was 181000 M⁻¹ s⁻¹.
B8: the “Rat CTGF koff” value was 0.000362 s⁻¹ and the “Rat CTGF kon” value was found to be 294000 M⁻¹ s⁻¹.
